Results taken from patent US9377466B2, “Compounds and methods” (Modpro AB, priority 2010, dated 2016).
Read-outs that look alike come from different tables or passages of the source. Ends that are not written are not given here.

Columns and labels:
[1] = CD spectroscopy, mean residue ellipticity of the sixteen scaffold polypeptides; format: physicochemical; details: error ±1000; for [θ]222 at high concentration: high concentration 30-230 μM as listed per peptide; for [θ]222 at low concentration: low concentration 1-5 μM as listed per peptide
Method: The mean residue ellipticities at 222 nm, [θ]222, □ of the sixteen scaffold polypeptides were recorded at two concentrations, approximately 30 μM and approximately 1 μM, to characterize the state of aggregation, cf.
The degree of helix formation is related to the monomer-dimer equilibrium since monomers are unordered with low helical content whereas dimers are highly helical. […] While the ^1H NMR spectra have not been recorded of all sequences and of all polypeptide conjugates, it is likely that the sequences presented here are best described as molten globules.

thymidine kinase (TK) [2] = experiment: Fluorescence binding studies with TK; details: 2 μM peptide, one and two equivalents of TK
Method: Estimating that at least 60% of the peptides were then bearing the ligand, the solution was diluted to 2 μM concentration and the protein TK was added. The fluorescence response was screened after 15 min, 45 min, 2 hrs, and 20 hrs. A maximal response was seen after 2 hours of incubation time.
A NUNC™ polystyrene 384 well plate (100 μl-volume) and pipette-tips were coated with Pluronic® overnight, then washed with H2O and dried. The fluorescence-measurement was carried out in Tris-buffers (Buffer for TK-studies: 20 mM Tris/HCl, 0.4 M NaCl, 0.3 M imidazole, 2 mM DTT, 50% glycerol, pH 7.6). Assuming that at least 60% of the dT-binder was conjugated to the polypeptides (see 0), stock-solutions were prepared with a concentration of 60 μM. The concentration of the TK stock solution was 0.10 mM. A polypeptide concentration of 2 μM in […] was used. The protein was added to wells containing the peptide conjugates to give final TK concentrations of 2 or 4 μM. Fluorescence intensities of protein-binder mixtures were compared to intensities of binders without protein and a significant change in fluorescence intensity in the presence of one equivalent of protein, in comparison to that of binder without protein, was interpreted as complexation of target protein by the binder. Binders showing a change in intensity in the presence of 2 μM protein but no further change in intensity in the presence of 4 μM protein were considered “hits”.
The dansyl probe was excited at 335 nm and emission was recorded 420-600 nm. All measurements were performed at room temperature and were made in triplicates. The wells were read after 15 min, 45 min and 2 hours.

thymidine kinase (TK) [3] = experiment: Binding studies with TK in the presence of ATP (fluorescence, MALDI-TOF); details: for binding affinity to TK (in words): 1, 2 and 3 eq. TK, buffer with and without ATP; for time after which peptide is fully phosphorylated (MALDI-TOF): TK, buffer with ATP
Method: The fluorescence intensities were measured in presence of 1, 2 and 3 eq. TK in buffer with and without ATP. The introduction of ATP represents a realistic measurement situation as it is present in biological samples and is likely to react with the probe in the presence of TK. Data were collected 15 min, 45 min and 2 hrs after adding the enzyme. The samples for MALDI-TOF were collected appr. 5 mins, 45 mins and 2 hours after adding the enzyme to measure the change in masses.

HCAI = biological target: T1, HCAI (Homo sapiens, UniProt P00915); details: literature, read-out: dissociation constant Kd for HCAI, cited from earlier work
T1 construct: purchased Sigma
T1 sequence (P00915 whole entry): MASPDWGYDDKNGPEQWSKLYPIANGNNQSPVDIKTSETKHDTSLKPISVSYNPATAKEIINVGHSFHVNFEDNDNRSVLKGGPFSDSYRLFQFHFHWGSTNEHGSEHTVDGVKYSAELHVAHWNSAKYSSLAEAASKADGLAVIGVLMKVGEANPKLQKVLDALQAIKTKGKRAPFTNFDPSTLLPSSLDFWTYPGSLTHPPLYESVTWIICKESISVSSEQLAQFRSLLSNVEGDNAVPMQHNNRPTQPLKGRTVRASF

| Substance | [θ]222 at high concentration [1] | [θ]222 at low concentration [1] | also measured |
| --- | --- | --- | --- |
| 1-C10L17: SEQ ID NO: 5 NAADLEAAIKHLAEALKERGPEDCEQLAEQLARAFEAFARAG | −18200 deg cm^2 dmol^−1 | −11800 deg cm^2 dmol^−1 | – |
| 1-C15L8: SEQ ID NO: 1 NEADLEAKIRHLAEKLEARGPEDAEQLAEQLARAFEAFARAG | −17800 deg cm^2 dmol^−1 | −25100 deg cm^2 dmol^−1 | – |
| 1-C25L22: SEQ ID NO: 9 NEADLEAAIRHLAEALEARGPKDAKQLAEQLARAFEAFERAG | −24800 deg cm^2 dmol^−1 | −18000 deg cm^2 dmol^−1 | – |
| 2-C10L17: SEQ ID NO: 6 NAADLEAAIKHLAEALKARGPVDAAQLAEQLARAFEAFARAG | −23400 deg cm^2 dmol^−1 | −20400 deg cm^2 dmol^−1 | – |
| 2-C15L8: SEQ ID NO: 2 NEADLEAKIRHLAEKLAARGPVDAAQLAEQLARAFEAFARAG | −24900 deg cm^2 dmol^−1 | −20800 deg cm^2 dmol^−1 | – |
| 2-C25L22: SEQ ID NO: 10 NEADLEAAIRHLAEALAARGPKDAKQLAEQLARAFEAFARAG | −25000 deg cm^2 dmol^−1 | −24800 deg cm^2 dmol^−1 | – |
| 2-C37L34-dT: polypeptide 2-C37L34 conjugated to deoxy-thymidine (dT) probe 19 (NAADLEAAIRHLAERLAARGPVDAAQLAEQLAAKFEKFARAG; also: conjugated to deoxy-thymidine (dT) probe 19, site not given here) | – | – | classification in fluorescence screen (thymidine kinase (TK) [2]): not considered to be tight binders |
| 2-C37L34: SEQ ID NO: 14 NAADLEAAIRHLAERLAARGPVDAAQLAEQLAAKFEKFARAG | −23900 deg cm^2 dmol^−1 | −30300 deg cm^2 dmol^−1 | – |
| 3-C10L17-dT: polypeptide 3-C10L17 conjugated to deoxy-thymidine (dT) probe 19 (NAADLEARIKHLAERLKARGPVDAAQLAEQLARAFEAFARAG; also: conjugated to deoxy-thymidine (dT) probe 19, site not given here) | – | – | classification in fluorescence screen (thymidine kinase (TK) [2]): not considered to be tight binders |
| 3-C10L17: SEQ ID NO: 7 NAADLEARIKHLAERLKARGPVDAAQLAEQLARAFEAFARAG | −22400 deg cm^2 dmol^−1 | −20700 deg cm^2 dmol^−1 | – |
| 3-C15L8-dT: polypeptide 3-C15L8 conjugated to deoxy-thymidine (dT) probe 19 (NAADLEAKIRHLAEKLAARGPVDAAQLAEQLARRFEAFARAG; also: conjugated to deoxy-thymidine (dT) probe 19, site not given here) | – | – | binding affinity to TK (in words) (thymidine kinase (TK) [3]): good but not as good as for 4-C10L17-dT; time after which peptide is fully phosphorylated (MALDI-TOF) (thymidine kinase (TK) [3]): 45 min |
| 3-C15L8: SEQ ID NO: 3 NAADLEAKIRHLAEKLAARGPVDAAQLAEQLARRFEAFARAG | −23400 deg cm^2 dmol^−1 | −19700 deg cm^2 dmol^−1 | – |
| 3-C25L22: SEQ ID NO: 11 NAADLEAAIRHLAERLAARGPKDAKQLAEQLARAFEAFARAG | −26400 deg cm^2 dmol^−1 | −23000 deg cm^2 dmol^−1 | – |
| 3-C37L34: SEQ ID NO: 15 NAADLEAAIRHLAERLAARGPVDAAQLAEQLARKFEKFARAG | −22500 deg cm^2 dmol^−1 | −22200 deg cm^2 dmol^−1 | – |
| 4-C10L17-dT: polypeptide 4-C10L17 conjugated to deoxy-thymidine (dT) probe 19 (NAADLEARIKHLRERLKARGPRDAAQLAEQLARAFERFARAG; also: conjugated to deoxy-thymidine (dT) probe 19, site not given here) | – | – | binding affinity to TK (in words) (thymidine kinase (TK) [3]): strong binding affinity; time after which peptide is fully phosphorylated (MALDI-TOF) (thymidine kinase (TK) [3]): 45 min |
| 4-C15L8-dT: polypeptide 4-C15L8 conjugated to deoxy-thymidine (dT) probe 19 (NAADLEAKIRHLREKLAARGPRDAAQLAEQLARRFERFARAG; also: conjugated to deoxy-thymidine (dT) probe 19, site not given here) | – | – | classification in fluorescence screen (thymidine kinase (TK) [2]): not considered to be tight binders |
| 4-C15L8: SEQ ID NO: 4 NAADLEAKIRHLREKLAARGPRDAAQLAEQLARRFERFARAG | −22000 deg cm^2 dmol^−1 | −15300 deg cm^2 dmol^−1 | – |
| 4-C25L22-dT: polypeptide 4-C25L22 conjugated to deoxy-thymidine (dT) probe 19 (NAADLEARIRHLRERLAARGPKDAKQLAEQLARAFERFARAG; also: conjugated to deoxy-thymidine (dT) probe 19, site not given here) | – | – | classification in fluorescence screen (thymidine kinase (TK) [2]): not considered to be tight binders; binding affinity to TK (in words) (thymidine kinase (TK) [3]): generally good binding affinity; time after which peptide is fully phosphorylated (MALDI-TOF) (thymidine kinase (TK) [3]): 5 to 10 min |
| 4-C25L22: SEQ ID NO: 12 NAADLEARIRHLRERLAARGPKDAKQLAEQLARAFERFARAG | −23700 deg cm^2 dmol^−1 | −18200 deg cm^2 dmol^−1 | – |
| 4-C37L34: SEQ ID NO: 16 NAADLEARIRHLRERLAARGPRDAAQLAEQLARKFEKFARAG | −19600 deg cm^2 dmol^−1 | −14900 deg cm^2 dmol^−1 | – |
| benzenesulphonamidecarboxylic acid | – | – | Kd (HCAI; listed as benzenesulphonamide): 1000 to 4000 nM; Kd (HCAI): 1100 to 3900 nM |
